Results reported in the nanobody polyreactivity screen of Harvey et al. (2022).

assay: yeast display, Sf9 membrane polyspecificity reagent, FACS + sequencing; frameworks hold sequencing errors
How it was run: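 A synthetic nanobody library was expressed on Saccharomyces cerevisiae BJ5465 by galactose induction for 36–48 hours. The library was stained for 1 hour at 4 °C with 10% biotinylated, detergent-solubilized Sf9 membrane reagent and enriched with streptavidin microbeads before FACS. Low and high (top ~1%) gates were set on anti-HA fluorescence for expression and streptavidin fluorescence for reagent binding, and each polyreactivity label reflects the gate of origin.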

Sequence | polyreactivity (PSR sort gate)
QVQLVESGGGLVQAGGSLRLSCAASGFTFSPNAMGGYRQAPGKERELVAAISKRGASTYYADSVKGRFTISRDNAKNTVYLQMNSLKPEDTAVYYCNVGASARKPYDYWGQGTQVTVSS | high polyreactivity
QVQLVESGGGLVQAGGSLRLSCAASGFTFSPNAMGWSTQAPGQEREVVAAITSGGNTYADSVKGRFTISRDNAKNSVYFQMNSLKPDDNAVYYCAKGEGYWYIARYLPVGYGYWGQGTQVTVSS | low polyreactivity
QVQLVESGGGLVQAGGSLRLSCAASGFTFSPYTMGWYRQAPGKERELVATIRYDGTSTYYADSVKGRFTISRDYAKNTVYLQMNSLKPEDTAVYFCAADIWRVYSTFYYWGQGTQVTVSS | low polyreactivity
QVQLVESGGGLVQAGGSLRLSCAASGFTFSRNAMGWYRQAPGKERELVAAIDSGGSTDYADSVKGRFTISRDNAKNTVYLQMNSLKPEDTAVYYCAIASSATRYVQLRQDYDYWGQGTQVTVSS | low polyreactivity
QVQLVESGGGLVQAGGSLRLSCAASGFTFSRNAMGWYRQAPGKERELVAAISGRTGTTYYADSVKGRFTISRDNAKNTVYLQMNSLKTVDTAVYYCAKSSGRYRSDYWGQGTQVTVSS | high polyreactivity
QVQLVESGGGLVQAGGSLRLSCAASGFTFSRNAMGWYRQAPGKERELVAAITSRGGSTYYADSVKGRFTISRDNAKNTVYLQMNSLKPEDTAVYYCNAKLISGIYTADSRSRIYDYWGQGTQVTVSS | high polyreactivity
QVQLVESGGGLVQAGGSLRLSCAASGFTFSRNVLGWYRQAPGKERELIAAITTSYGGTYYADSVKGRFTISRDNAKNTVYLQMNSLKPEDTAVYYCATRYYPNTSYEYYYWGQGTQLTVSS | low polyreactivity
QVQLVESGGGLVQAGGSLRLSCAASGFTFSRYAMGWYRQAPGKERELVAAITASGGTTYYADSVKGRFTISRDNAKNTVYLQMNSLKAEDTAVYYCNALYYYLYGYDYWGQGTQVTVSS | high polyreactivity
QVQLVESGGGLVQAGGSLRLSCAASGFTFSSNAMGWYRQAPGKQRELVAAISKGGGSTYYADSVKGRFTISRDNAKNTGYLQMNSLKPEDTAVYYCAKEYDTYAYTYPYNYWGQGTQVTVSS | high polyreactivity
QVQLVESGGGLVQAGGSLRLSCAASGFTFSSNGMGWYRQAPGKERELVAAITRRGGSTYYADSVKGRFTISRDNAKNTVYLQMNSLKPEDTAVYYCAARRSGTYYGTYKSNGRNYWGQGTQVTVSS | high polyreactivity
QVQLVESGGGLVQAGGSLRLSCAASGFTFSSYAMGWYRQAPGKERELVAAISTRGGSTYYADSVKGRFTISRDNAKNTVYLQMNSLKPEETAVYYCAARYGTSYKVRWTYYAFDYWGQGTQVTVSS | low polyreactivity
QVQLVESGGGLVQAGGSLRLSCAASGFTFSSYAMGWYRQAPGKERELVAAITQSGGRTYYADSVKGRFTISRDNAKNTVYLQMNSLKPEDTADYYCAADVTLWYDYWGQGTQVTVSS | low polyreactivity
QVQLVESGGGLVQAGGSLRLSCAASGFTFSSYYMGWYRQAPGKERELVAAITSSGDDTYYADSVKGRFTISRDNAKNTVYLQMNSLKPEDTAVYYCAAEYTEGYTHDYGGQGTQVTVSS | low polyreactivity
QVQLVESGGGLVQAGGSLRLSCAASGFTFSTYAMGWYRQAPGKERELVAAISRSGGSTYYADSVKGRFTISRDNAKNTVYLQMNSLKPEDTAVYYCNAEGPSYYYIIYDYWGQGTQVTGSS | high polyreactivity
QVQLVESGGGLVQAGGSLRLSCAASGFTFSTYTMGWYRPAPGKVRELVAAITWTGGRKYYADSVKGRFTISRDNAKNTVFLQMNSLKPEDTAVYYCNRAGYTGAEVYGYDYWGQGTQVTVSS | high polyreactivity
QVQLVESGGGLVQAGGSLRLSCAASGFTFSVYVIGWYRQAPGKERELVAAISSGGDTTYADSVKGRFTISRDNAKNTVYLQMNSLKPEDTAVYYCADYRVILYYLYDYWGQGTQVTVSS | low polyreactivity
QVQLVESGGGLVQAGGSLRLSCAASGFTFSWYAMGWYRQAPGKERELVAAISLSGDRTYYADSVKGRFTISRDNANNTVYLQMNSLKPEDTAVYYCVFAFEYWGQGTQVTVSS | low polyreactivity
